B1: Chromodomain-helicase-DNA-binding protein 3, residues 374 to 426; numbered along this chain, Q12873 (parent)
chain: YETDHQDYCEVCQQGGEIILCDTCPRAYHLVCLDPELDRAPEGKWSCPHCEKE

Variants of: B1
Assay: abundance fitness (aPCA) (normalised: wild type 0, dead -1); higher = more abundant; growth selection in yeast, the domain comes from the species named
Conditions: Homo sapiens

Abundance fitness, by site and new letter:
C32: R -1.06 | S -0.68 | E -0.663 | K -0.958 | T -0.948 | Q -0.821 | I -1.06 | H -0.163 | P -0.957 | W -0.502 | A -1.09 | N -0.797 | D -0.718 | M -0.94 | F -1.05 | L -0.986 | V -1.2
V31: K -0.132 | E -0.229 | S -0.061 | M -0.03 | L -0.17 | T -0.3 | D -0.18 | Q -0.012 | A 0.158 | F -0.09 | W -0.26 | G -0.094 | N -0.314 | I -0.245 | Y -0.297 | H 0.038 | C -0.254
E36: D -0.507 | I -0.145 | F -0.083 | P -0.039 | R 0.018 | N 0.143 | Q -0.193 | C 0.182 | V -0.018 | Y -0.405 | L -0.114 | G -0.009 | T -0.172 | S -0.335 | M -0.024 | H -0.15 | W -0.478 | A -0.029
D38: W -0.319 | R -0.352 | Y -0.522 | L -0.216 | K -0.518 | H 0.066 | P -0.129 | N -0.552 | G -0.142 | A -0.035 | F -0.082 | V 0.011 | T -0.169 | Q -0.326 | M -0.416 | C -0.259 | S -0.09
L37: F -0.426 | H -0.037 | I -0.191 | Y 0.073 | E -0.732 | N -0.189 | S -0.295 | C -0.142 | K -0.116 | D -0.228 | V -0.143 | W -0.298 | Q -0.21 | G -0.108

Reference: the Human Domainome abundance scans (Beltran et al. 2025)
